Test results from paper PMC5146997.

Assays:
[1] = biological target: EphA2-Fc (entire ectodomain of EphA2 fused to the Fc fragment of IgG) (UniProt P29317); assay: ELISA
[2] = biological target: EphA2 at the surface of PC3 cells (endogenous) (human (endogenous in PC3)) (UniProt P29317); assay: in-cell binding assay
Sequence of EphA2 at the surface of PC3 cells (endogenous) (human (endogenous in PC3)) (P29317 24-976): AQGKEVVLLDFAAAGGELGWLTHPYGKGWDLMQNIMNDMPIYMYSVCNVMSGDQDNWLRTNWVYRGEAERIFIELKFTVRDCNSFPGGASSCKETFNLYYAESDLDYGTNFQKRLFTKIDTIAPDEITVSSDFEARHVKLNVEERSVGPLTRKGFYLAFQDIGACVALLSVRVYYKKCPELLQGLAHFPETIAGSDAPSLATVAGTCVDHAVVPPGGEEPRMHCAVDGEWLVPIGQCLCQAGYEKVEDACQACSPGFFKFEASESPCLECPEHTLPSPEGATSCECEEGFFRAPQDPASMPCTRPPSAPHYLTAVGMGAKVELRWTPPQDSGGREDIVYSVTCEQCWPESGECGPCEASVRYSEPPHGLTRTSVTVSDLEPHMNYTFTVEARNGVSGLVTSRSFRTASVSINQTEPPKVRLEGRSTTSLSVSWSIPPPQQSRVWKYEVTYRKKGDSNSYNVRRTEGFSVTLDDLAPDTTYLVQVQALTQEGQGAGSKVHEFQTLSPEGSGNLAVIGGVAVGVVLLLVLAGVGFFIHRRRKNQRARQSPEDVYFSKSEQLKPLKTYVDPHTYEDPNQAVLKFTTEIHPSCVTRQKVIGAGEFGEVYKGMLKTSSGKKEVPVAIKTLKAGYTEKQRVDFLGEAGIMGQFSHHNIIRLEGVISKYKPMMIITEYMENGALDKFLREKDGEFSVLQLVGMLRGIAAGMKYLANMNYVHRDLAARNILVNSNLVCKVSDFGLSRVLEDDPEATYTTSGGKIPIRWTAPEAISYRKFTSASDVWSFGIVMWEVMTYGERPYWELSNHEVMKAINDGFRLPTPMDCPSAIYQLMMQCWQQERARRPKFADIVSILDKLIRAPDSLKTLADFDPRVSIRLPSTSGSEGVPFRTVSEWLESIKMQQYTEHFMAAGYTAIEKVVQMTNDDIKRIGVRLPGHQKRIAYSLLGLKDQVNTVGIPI

Sequence of EphA2-Fc (entire ectodomain of EphA2 fused to the Fc fragment of IgG) (P29317 24-537): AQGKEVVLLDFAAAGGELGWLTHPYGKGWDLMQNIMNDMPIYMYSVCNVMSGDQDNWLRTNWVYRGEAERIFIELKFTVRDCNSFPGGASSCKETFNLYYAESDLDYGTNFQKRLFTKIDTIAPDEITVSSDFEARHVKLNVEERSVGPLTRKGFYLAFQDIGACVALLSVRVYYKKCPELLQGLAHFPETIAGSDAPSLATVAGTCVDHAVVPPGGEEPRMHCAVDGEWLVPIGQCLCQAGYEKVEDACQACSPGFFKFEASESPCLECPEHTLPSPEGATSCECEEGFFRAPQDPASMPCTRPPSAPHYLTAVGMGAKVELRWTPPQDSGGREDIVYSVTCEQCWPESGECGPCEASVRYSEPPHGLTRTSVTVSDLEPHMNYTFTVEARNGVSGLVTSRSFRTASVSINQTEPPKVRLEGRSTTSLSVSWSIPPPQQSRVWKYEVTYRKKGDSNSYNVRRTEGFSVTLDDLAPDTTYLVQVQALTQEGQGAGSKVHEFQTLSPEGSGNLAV

Kd [1]: 17 nM | IC50 [2]: 400 nM
Substance: EphrinA1-Fc (from UniProt P20827 19-182) (Fc fusion)
